Measurements reported in article PMC12669751, “Immunodominant antibodies against hemagglutinin in ferrets following infection with 2018 to 2019 influenza vaccine strains” (NPJ Vaccines, 2025).

Target: TX/50 egg-version rHA1 (Influenza A virus A/Texas/50/2012 …, UniProt R4L1D1, strain)
Assay: BLI
Conditions: one partner purified

B1: monoclonal antibody FluA-20 (antibody, V domains shown)
VH: QVQLEESGPGLVKPSETLSLTCSVSGVSVTSDIYYWTWIRQPPGKGLEWIGYIFYNGDTNYNPSLKSRVTMSIDTSKNEFSLRLTSVTAADTAVYFCARGTEDLGYCSSGSCPNHWGQGTLVTVSS
VL: DIVMTQSPSSLSASIGDRVTITCRPSQNIRSFLNWFQHKPGKAPKLLIYAASNLQSGVPSRFSGSGSGTEFTLTIRSLQPEDFATYYCQQSYNTPPTFGQGTKVEIK
notes: also called FluA-20 mAb; pan-H3 anti-HA1 mAb; copies: 2 + 2
  binding result: binds
